According to paper PMC7822592, “The half-life of the bone-derived hormone osteocalcin is regulated through O-glycosylation in mice, but not in humans” (eLife, 2020):
No end group written: not given here.

What was measured:
INS-1 832/3 cells [1] = test: OCN stability in INS-1 832/3 cell culture media; type: in vitro ADME, rat; conditions: 8 hours with INS-1 cells at 37°C, ELISA
Protocol: (§1) The INS-1 832/3 rat insulinoma cell line (Millipore-Sigma) was cultured in RPMI-1640 with 11.1 mM D-glucose, supplemented with 2 mM L-glutamine, 1 mM sodium pyruvate, 10 mM HEPES, 0.05 mM β-mercaptoethanol and 10% FBS ([Hohmeier et al., 2000]). On day 1, cells were plated at 3 × 10^5 cells per well in 12-well plates and on day 5, cells were washed with PBS and incubated with culture media containing 5 mM D-glucose. Twenty-four hours later, cells were washed with PBS and incubated for 4 hr in culture media containing 1% FBS, 5 mM D-glucose and 0.1% BSA. OCN was added for 8 hr before supernatants and cells were harvested. ucOCN and O-gly ucOCN concentration were measured in supernatants by ELISA and cells were lyzed and RNA extracted as described in the material and methods section. Gene expression was analyzed using rat specific primers for Ins1 and Gapdh.

INS-1 832/3 cells [2] = test: OCN stability in INS-1 832/3 cell culture media; type: in vitro ADME, rat; conditions: 8 hours at 4°C without cells, ELISA
[3] = In vivo half-life assay, serum OCN after intraperitoneal injection in Bglap-/- mice; set-up: species or system mouse; conditions: for serum OCN / in vivo half-life / % OCN from initial (relative to maximum at 30 min) / % OCN from initial, mean used for 1/2 life: 40 ng/g i.p.; for serum OCN: ELISA; for in vivo half-life: estimated from declining phase after maximum at 30 min, serum ELISA; for % OCN from initial (relative to maximum at 30 min) / % OCN from initial, mean used for 1/2 life: serum, fasted Bglap-/- mice
Protocol: For in vivo half-life assay, Bglap-/- male mice were injected intraperitoneally with 40 or 80 ng/g of body weight of mouse O-glycosylated ucOCN or non-glycosylated ucOCN, serum OCN level was analyzed at indicated time points using total mouse OCN ELISA. In all ex vivo and in vivo studies, mouse or human proteins were prepared in saline solution (0.9% NaCl) containing BSA (35 mg/ml) as a carrier.

INS-1 832/3 cells [4] = test: Ins1 gene expression in INS-1 832/3 cells treated with ucOCN; type: cell-based, rat; conditions: 8 hr; for Ins1 gene expression (Fold change relative to vehicle): 0.3 ng/mL, qPCR
Protocol: as §1

## ucOCN: Non-glycosylated uncarboxylated mouse osteocalcin produced in bacteria (YLGASVPSPDPLEPTREQCELNPACDELSDQYGLKTAYKRIYGITI; ends and bridges not checked; cysteine pairing not given here; UniProt P86546 50-95, looked up)
INS-1 832/3 cells [1]; replicate 1
  OCN in stimulation media: 0.037 ng/mL
INS-1 832/3 cells [1]; replicate 2
  OCN in stimulation media: 0.028 ng/mL
INS-1 832/3 cells [1]; replicate 3
  OCN in stimulation media: 0.03 ng/mL
INS-1 832/3 cells [2]; replicate 1
  OCN in stimulation media: 0.15 ng/mL
INS-1 832/3 cells [2]; replicate 2
  OCN in stimulation media: 0.18 ng/mL
INS-1 832/3 cells [2]; replicate 3
  OCN in stimulation media: 0.17 ng/mL
[3]; Bglap-/- male mice fasted 16 hr, 15 min, mouse 1
  serum OCN: 21.6 ng/mL
[3]; Bglap-/- male mice fasted 16 hr, 15 min, mouse 2
  serum OCN: 16.5 ng/mL
[3]; Bglap-/- male mice fasted 16 hr, 15 min, mouse 3
  serum OCN: 22.3 ng/mL
[3]; Bglap-/- male mice fasted 16 hr, 15 min, mouse 4
  serum OCN: 21.8 ng/mL
[3]; Bglap-/- male mice fasted 16 hr, 30 min, mouse 1
  serum OCN: 29.0 ng/mL
[3]; Bglap-/- male mice fasted 16 hr, 30 min, mouse 2
  serum OCN: 18.8 ng/mL
[3]; Bglap-/- male mice fasted 16 hr, 30 min, mouse 3
  serum OCN: 19.1 ng/mL
[3]; Bglap-/- male mice fasted 16 hr, 30 min, mouse 4
  serum OCN: 16.7 ng/mL
[3]; Bglap-/- male mice fasted 16 hr, 60 min, mouse 1
  serum OCN: 21.9 ng/mL
[3]; Bglap-/- male mice fasted 16 hr, 60 min, mouse 2
  serum OCN: 14.4 ng/mL
[3]; Bglap-/- male mice fasted 16 hr, 60 min, mouse 3
  serum OCN: 15.0 ng/mL
[3]; Bglap-/- male mice fasted 16 hr, 60 min, mouse 4
  serum OCN: 14.8 ng/mL
[3]; Bglap-/- male mice fasted 16 hr, 90 min, mouse 1
  serum OCN: 15.6 ng/mL
[3]; Bglap-/- male mice fasted 16 hr, 90 min, mouse 2
  serum OCN: 12.2 ng/mL
[3]; Bglap-/- male mice fasted 16 hr, 90 min, mouse 3
  serum OCN: 12.9 ng/mL
[3]; Bglap-/- male mice fasted 16 hr, 90 min, mouse 4
  serum OCN: 13.2 ng/mL
[3]; Bglap-/- male mice fasted 16 hr, 120 min, mouse 1
  serum OCN: 11.8 ng/mL
[3]; Bglap-/- male mice fasted 16 hr, 120 min, mouse 2
  serum OCN: 10.3 ng/mL
[3]; Bglap-/- male mice fasted 16 hr, 120 min, mouse 3
  serum OCN: 10.8 ng/mL
[3]; Bglap-/- male mice fasted 16 hr, 120 min, mouse 4
  serum OCN: 12.0 ng/mL
[3]; Bglap-/- male mice fasted 16 hr
  in vivo half-life: 108 min
[3]; Bglap-/- male mice fasted 16 hr, listed as non-glycosylated ucOCN
  in vivo half-life: ~ 108 min
[3]; fed Bglap-/- male mice, 15 min, mouse 1
  serum OCN: 39.8 ng/mL
[3]; fed Bglap-/- male mice, 15 min, mouse 2
  serum OCN: 45.5 ng/mL
[3]; fed Bglap-/- male mice, 15 min, mouse 3
  serum OCN: 45.6 ng/mL
[3]; fed Bglap-/- male mice, 15 min, mouse 4
  serum OCN: 45.1 ng/mL
[3]; fed Bglap-/- male mice, 15 min, mouse 5
  serum OCN: 35.2 ng/mL
[3]; fed Bglap-/- male mice, 15 min, mouse 6
  serum OCN: 29.7 ng/mL
[3]; fed Bglap-/- male mice, 15 min, mouse 7
  serum OCN: 14.2 ng/mL
[3]; fed Bglap-/- male mice, 15 min, mouse 8
  serum OCN: 30.7 ng/mL
[3]; fed Bglap-/- male mice, 15 min, mouse 9
  serum OCN: 21.4 ng/mL
[3]; fed Bglap-/- male mice, 30 min, mouse 1
  serum OCN: 67.5 ng/mL
[3]; fed Bglap-/- male mice, 30 min, mouse 2
  serum OCN: 58.2 ng/mL
[3]; fed Bglap-/- male mice, 30 min, mouse 3
  serum OCN: 51.8 ng/mL
[3]; fed Bglap-/- male mice, 30 min, mouse 4
  serum OCN: 52.9 ng/mL
[3]; fed Bglap-/- male mice, 30 min, mouse 5
  serum OCN: 43.5 ng/mL
[3]; fed Bglap-/- male mice, 30 min, mouse 6
  serum OCN: 27.8 ng/mL
[3]; fed Bglap-/- male mice, 30 min, mouse 7
  serum OCN: 13.8 ng/mL
[3]; fed Bglap-/- male mice, 30 min, mouse 8
  serum OCN: 34.7 ng/mL
[3]; fed Bglap-/- male mice, 30 min, mouse 9
  serum OCN: 14.9 ng/mL
[3]; fed Bglap-/- male mice, 60 min, mouse 1
  serum OCN: 46.1 ng/mL
[3]; fed Bglap-/- male mice, 60 min, mouse 2
  serum OCN: 20.7 ng/mL
[3]; fed Bglap-/- male mice, 60 min, mouse 3
  serum OCN: 25.4 ng/mL
[3]; fed Bglap-/- male mice, 60 min, mouse 4
  serum OCN: 25.6 ng/mL
[3]; fed Bglap-/- male mice, 60 min, mouse 5
  serum OCN: 15.8 ng/mL
[3]; fed Bglap-/- male mice, 60 min, mouse 6
  serum OCN: 8.8 ng/mL
[3]; fed Bglap-/- male mice, 60 min, mouse 7
  serum OCN: 7.2 ng/mL
[3]; fed Bglap-/- male mice, 60 min, mouse 8
  serum OCN: 10.7 ng/mL
[3]; fed Bglap-/- male mice, 60 min, mouse 9
  serum OCN: 5.7 ng/mL
[3]; fed Bglap-/- male mice, 90 min, mouse 1
  serum OCN: 16.3 ng/mL
[3]; fed Bglap-/- male mice, 90 min, mouse 2
  serum OCN: 7.1 ng/mL
[3]; fed Bglap-/- male mice, 90 min, mouse 3
  serum OCN: 9.0 ng/mL
[3]; fed Bglap-/- male mice, 90 min, mouse 4
  serum OCN: 10.0 ng/mL
[3]; fed Bglap-/- male mice, 90 min, mouse 5
  serum OCN: 6.0 ng/mL
[3]; fed Bglap-/- male mice, 90 min, mouse 6
  serum OCN: 4.4 ng/mL
[3]; fed Bglap-/- male mice, 90 min, mouse 7
  serum OCN: 4.7 ng/mL
[3]; fed Bglap-/- male mice, 90 min, mouse 8
  serum OCN: 5.4 ng/mL
[3]; fed Bglap-/- male mice, 90 min, mouse 9
  serum OCN: 4.0 ng/mL
[3]; fed Bglap-/- male mice, 120 min, mouse 1
  serum OCN: 8.1 ng/mL
[3]; fed Bglap-/- male mice, 120 min, mouse 2
  serum OCN: 4.4 ng/mL
[3]; fed Bglap-/- male mice, 120 min, mouse 3
  serum OCN: 5.4 ng/mL
[3]; fed Bglap-/- male mice, 120 min, mouse 4
  serum OCN: 6.0 ng/mL
[3]; fed Bglap-/- male mice, 120 min, mouse 5
  serum OCN: 4.2 ng/mL
[3]; fed Bglap-/- male mice, 120 min, mouse 6
  serum OCN: 3.7 ng/mL
[3]; fed Bglap-/- male mice, 120 min, mouse 7
  serum OCN: 3.8 ng/mL
[3]; fed Bglap-/- male mice, 120 min, mouse 8
  serum OCN: 4.1 ng/mL
[3]; fed Bglap-/- male mice, 120 min, mouse 9
  serum OCN: 3.6 ng/mL
[3]; fed Bglap-/- male mice, 180 min, mouse 1
  serum OCN: 1.9 ng/mL
[3]; fed Bglap-/- male mice, 180 min, mouse 2
  serum OCN: 2.1 ng/mL
[3]; fed Bglap-/- male mice, 180 min, mouse 3
  serum OCN: 1.8 ng/mL
[3]; fed Bglap-/- male mice, 180 min, mouse 4
  serum OCN: 1.6 ng/mL
[3]; fed Bglap-/- male mice, 180 min, mouse 5
  serum OCN: 3.4 ng/mL
[3]; fed Bglap-/- male mice, 180 min, mouse 6
  serum OCN: 3.4 ng/mL
[3]; fed Bglap-/- male mice, 180 min, mouse 7
  serum OCN: 3.4 ng/mL
[3]; fed Bglap-/- male mice, 180 min, mouse 8
  serum OCN: 3.6 ng/mL
[3]; fed Bglap-/- male mice, 180 min, mouse 9
  serum OCN: 3.4 ng/mL
[3]; fed Bglap-/- male mice, dose 40 ng/g i.p., mouse 1
  Serum OCN at 120 minutes: 8.1 ng/mL
[3]; fed Bglap-/- male mice, dose 40 ng/g i.p., mouse 2
  Serum OCN at 120 minutes: 4.4 ng/mL
[3]; fed Bglap-/- male mice, dose 40 ng/g i.p., mouse 3
  Serum OCN at 120 minutes: 5.4 ng/mL
[3]; fed Bglap-/- male mice, dose 40 ng/g i.p., mouse 4
  Serum OCN at 120 minutes: 6 ng/mL
[3]; fed Bglap-/- male mice, dose 80 ng/g i.p., mouse 1
  Serum OCN at 120 minutes: 6.9 ng/mL
[3]; fed Bglap-/- male mice, dose 80 ng/g i.p., mouse 2
  Serum OCN at 120 minutes: 5.7 ng/mL
[3]; fed Bglap-/- male mice, dose 80 ng/g i.p., mouse 3
  Serum OCN at 120 minutes: 13 ng/mL
[3]; 30 min, mouse 1
  % OCN from initial (relative to maximum at 30 min): 100.0%
[3]; 30 min, mouse 2
  % OCN from initial (relative to maximum at 30 min): 100.0%
[3]; 30 min, mouse 3
  % OCN from initial (relative to maximum at 30 min): 100.0%
[3]; 30 min, mouse 4
  % OCN from initial (relative to maximum at 30 min): 100.0%
[3]; 60 min, mouse 1
  % OCN from initial (relative to maximum at 30 min): 75.4%
[3]; 60 min, mouse 2
  % OCN from initial (relative to maximum at 30 min): 76.8%
[3]; 60 min, mouse 3
  % OCN from initial (relative to maximum at 30 min): 78.6%
[3]; 60 min, mouse 4
  % OCN from initial (relative to maximum at 30 min): 88.7%
[3]; 90 min, mouse 1
  % OCN from initial (relative to maximum at 30 min): 53.9%
[3]; 90 min, mouse 2
  % OCN from initial (relative to maximum at 30 min): 65.1%
[3]; 90 min, mouse 3
  % OCN from initial (relative to maximum at 30 min): 67.6%
[3]; 90 min, mouse 4
  % OCN from initial (relative to maximum at 30 min): 78.8%
[3]; 120 min, mouse 1
  % OCN from initial (relative to maximum at 30 min): 40.6%
[3]; 120 min, mouse 2
  % OCN from initial (relative to maximum at 30 min): 54.6%
[3]; 120 min, mouse 3
  % OCN from initial (relative to maximum at 30 min): 56.7%
[3]; 120 min, mouse 4
  % OCN from initial (relative to maximum at 30 min): 71.4%
[3]; time 0 min of declining phase
  % OCN from initial, mean used for 1/2 life: 100.0%
[3]; time 30 min of declining phase
  % OCN from initial, mean used for 1/2 life: 79.9%
[3]; time 60 min of declining phase
  % OCN from initial, mean used for 1/2 life: 66.3%
[3]; time 90 min of declining phase
  % OCN from initial, mean used for 1/2 life: 55.8%
INS-1 832/3 cells [4]; replicate 1
  Ins1 gene expression (Fold change relative to vehicle): 0.663 Fold change
INS-1 832/3 cells [4]; replicate 2
  Ins1 gene expression (Fold change relative to vehicle): 1.9 Fold change
INS-1 832/3 cells [4]; replicate 3
  Ins1 gene expression (Fold change relative to vehicle): 0.6 Fold change
INS-1 832/3 cells [4]; replicate 4
  Ins1 gene expression (Fold change relative to vehicle): 1.4 Fold change
INS-1 832/3 cells [4]; replicate 5
  Ins1 gene expression (Fold change relative to vehicle): 0.337 Fold change
INS-1 832/3 cells [4]; replicate 6
  Ins1 gene expression (Fold change relative to vehicle): 0.4 Fold change
INS-1 832/3 cells [4]; replicate 7
  Ins1 gene expression (Fold change relative to vehicle): 2.7 Fold change
INS-1 832/3 cells [4]; replicate 8
  Ins1 gene expression (Fold change relative to vehicle): 3.6 Fold change
INS-1 832/3 cells [4]; replicate 9
  Ins1 gene expression (Fold change relative to vehicle): 2.4 Fold change
INS-1 832/3 cells [4]; replicate 10
  Ins1 gene expression (Fold change relative to vehicle): 1.3 Fold change
INS-1 832/3 cells [4]; 0.3 ng/ml, quantitative PCR
  Ins1 expression increase: 1.5 fold
